Test results from patent US20120128635.

Experiments:
[1] = tested on: ZFN SBS#9802 (N2 pair) (synthetic construct); test: cell_activity; conditions: Cel-I assay in K562 day 3, as pair with SBS#11004; 34-47% in LP mouse liver in vivo (p174)
[2] = tested on: ZFN SBS#11004 (N2 pair) (synthetic construct); test: cell_activity; conditions: Cel-I assay in K562 day 3, as pair with SBS#9802; 34-47% in LP mouse liver in vivo (p174)

TGACACAGTACCTGGCACCATAGTTGTA (double strand) [hF9 intron 1 target of SBS#9802]
activity (% alleles cleaved) [1]: 30

GTACTAGGGGTATGGGGATAAACCAGAC (double strand) [hF9 intron 1 target of SBS#11004]
activity (% alleles cleaved) [2]: 30
